Assay results: publication PMC4072569 (Molecular Biology of the Cell, 2014)

B1: Sid2p-mEGFP (natural protein, S. pombe, UniProt Q09898 1-607, looked up)
chain: MNRVNDMSPVEGDLGLQLSSEADKKFDAYMKRHGLFEPGNLSNNDKERNLEDQFNSMKLSPVASSKENYPDNHMHSKHISKLPIASPIPRGLDRSGELSYKDNNHWSDRSSTGSPRWENGSMNLSVEEMEKVVQPKVKRMATICQMFFLDHYFEQLHYLYTRKQRARLFEEQLLKEPDSRRDELVKRYNGRERVYLRKRRTRISHGDFQTITQVGQGGYGSVWLARKRDTKEIVALKIMNKSVLHKMDEIRHVLTERDILTTANSEWLVRLLYAFQDTSNIYLAMEFVPGGDFRTLLSNSGVLRDHHAKFYATEMFLAIDALHQLGYIHRDLKPENFLVGASGHIKLTDFGLSSGIISKKKIESMKIRLQEVNNVVVPERSMRERRQVFRTLLSQDPVYAHSVVGSPDYMAPEVLRGENYNHSVDYWSLGCIMYECLSGFPPFSGSNVNETWSNLKNWRKCFQRPHYDDPRDLEFNWRDDAWDFVCHCITDPKDRFCSLKQVMQHPYFSKIDWKNVRTAYRPPFVPDLNSEIDAGYFDDFTNENDMSKYKEVHEKQAAIANMVNTFNKPKRNAFIGFTFRHQKNSHPTSSSSALSSPLSAPSFGTLL
B2: Blt1p-hexahistidine (natural protein, S. pombe, UniProt O74338 1-700, looked up)
chain: MSKSAFTSKSQLKGIDGSFNDPFRQPSMNLPTPPHDDGLPSIPRSTALPNLSNRLSPYSHRNYLPIPEADSRNLEVLNSISLTTGSVVNQINKLYQRSCDNANYLQDLRSLILQTPTAEANATQVTESLNQIQKILQEASSKDREQIVQVIKELNKGNSLEVRRELGNCLAHLKKGTLNIDNALQASLQKYWKELQYFNVSKDKLLSLEESIKLLSARLEETDTPSSTHWIEINAGFKEVGDELSENFQRKQEILSGLQNNVILRTNNRKPVGSDGSNSNFNGGEEQMDSKDQEEIQDYLNSLLSVHEKDGVLLQKFHNSYVQYQKLAVALSKYENFDADKLFQQMNLAKQSNETLLQTLTEQTDQLLSFKETMDSFKFILGPSMENQALQQGILAEQQDLVAQLRDIVLRSETLAENPSNMPGSCLPGASSNTADEFTEQLNLLKNEVARLSAICPSPNSGINASVLTNADNLEKENLLLVNNNAFKVDDRSVSSVALDDHNRQLQMNVEELEGKKADLTSKINRLDKDFVKLNTTYSLLTDQVKTKQLALQEIESRVIRLEERLNMLQKLSMQPAISSSSEFVPIESHPSSSAVVPIEEPKNSIIEKKRVPHNAARNSVNLEVTLPNSKKRFSSFSGSSSKLPVRPSTALTDKRKPSWSRRLAAAIGFSSGSPEKKHVITSSDAGHQRSKSRSFSSKM
B3: Mob1p-mEGFP (natural protein, S. pombe, UniProt O94360 1-210, looked up)
chain: MFGFSNKTAKTFRVRKTEAGTKHYQLRQYAEATLGSGSLMEAVKLPKGEDLNEWIAMNTMDFYTQINMLYGTITEFCTAASCPQMNAGPSYEYYWQDDKIYTKPTRMSAPDYINNLLDWTQEKLDDKKLFPTEIGVEFPKNFRKVIQQIFRRLFRIYAHIYCSHFHVMVAMELESYLNTSFKHFVFFCREFGLMDNKEYAPMQDLVDSMV
B4: Cdc15p-mEGFP (natural protein, S. pombe, UniProt Q09822 1-927, looked up)
chain: MEVNGVSQSEAAPYVTKSSVKFRDNFWGSEDAGMDALMSRTKSSLSVLESIDEFYAKRASIEREYASKLQELAASSADIPEVGSTLNNILSMRTETGSMAKAHEEVSQQINTELRNKIREYIDQTEQQKVVAANAIEELYQKKTALEIDLSEKKDAYEYSCNKLNSYMRQTKKMTGRELDKYNLKIRQAALAVKKMDAEYRETNELLLTVTREWIDRWTEVCDAFQHIEEYRLEFLKTNMWAYANIISTACVKDDESCEKIRLTLENTNIDEDITQMIQNEGTGTTIPPLPEFNDYFKENGLNYDIDQLISKAPSYPYSSSRPSASASLASSPTRSAFRPKTSETVSSEVVSSPPTSPLHSPVKPVSNEQVEQVTEVELSIPVPSIQEAESQKPVLTGSSMRRPSVTSPTFEVAARPLTSMDVRSSHNAETEVQAIPAATDISPEVKEGKNSENAITKDNDDIILSSQLQPTATGSRSSRLSFSRHGHGSQTSLGSIKRKSIMERMGRPTSPFMGSSFSNMGSRSTSPTKEGFASNQHATGASVQSDELEDIDPRANVVLNVGPNMLSVGEAPVESTSKEEDKDVPDPIANAMAELSSSMRRRQSTSVDDEAPVSLSKTSSSTRLNGLGYHSRNTSIASDIDGVPKKSTLGAPPAAHTSAQMQRMSNSFASQTKQVFGEQRTENSARESLRHSRSNMSRSPSPMLSRRSSTLRPSFERSASSLSVRQSDVVSPAPSTRARGQSVSGQQRPSSSMSLYGEYNKSQPQLSMQRSVSPNPLGPNRRSSSVLQSQKSTSSNTSNRNNGGYSGSRPSSEMGHRYGSMSGRSMRQVSQRSTSRARSPEPTNRNSVQSKNVDPRATFTAEGEPILGYVIALYDYQAQIPEEISFQKGDTLMVLRTQEDGWWDGEIINVPNSKRGLFPSNFVQTV

Key:
Blt1p-hexahistidine = molecular target: B2; assay: pull-down
AUC = molecular target: the molecule itself; assay: AUC

Row | percent pulled down from lysate (Blt1p-hexahistidine) [%] | Binder | stoichiometry N (AUC)
1 | 22 | B1 | –
2 | – | B2 | 4
3 | 42 | B3 | –
4 | 23 | B4 | –
